Source: publication PMC2139940 (The Journal of Cell Biology, 1997)
One block for each binder: values may come before it.

How the values were obtained:
[1] = molecular target: T1, GST fusion protein with α catenin (mouse, UniProt P26231 1-906); test: pull-down
T1 sequence (looked up): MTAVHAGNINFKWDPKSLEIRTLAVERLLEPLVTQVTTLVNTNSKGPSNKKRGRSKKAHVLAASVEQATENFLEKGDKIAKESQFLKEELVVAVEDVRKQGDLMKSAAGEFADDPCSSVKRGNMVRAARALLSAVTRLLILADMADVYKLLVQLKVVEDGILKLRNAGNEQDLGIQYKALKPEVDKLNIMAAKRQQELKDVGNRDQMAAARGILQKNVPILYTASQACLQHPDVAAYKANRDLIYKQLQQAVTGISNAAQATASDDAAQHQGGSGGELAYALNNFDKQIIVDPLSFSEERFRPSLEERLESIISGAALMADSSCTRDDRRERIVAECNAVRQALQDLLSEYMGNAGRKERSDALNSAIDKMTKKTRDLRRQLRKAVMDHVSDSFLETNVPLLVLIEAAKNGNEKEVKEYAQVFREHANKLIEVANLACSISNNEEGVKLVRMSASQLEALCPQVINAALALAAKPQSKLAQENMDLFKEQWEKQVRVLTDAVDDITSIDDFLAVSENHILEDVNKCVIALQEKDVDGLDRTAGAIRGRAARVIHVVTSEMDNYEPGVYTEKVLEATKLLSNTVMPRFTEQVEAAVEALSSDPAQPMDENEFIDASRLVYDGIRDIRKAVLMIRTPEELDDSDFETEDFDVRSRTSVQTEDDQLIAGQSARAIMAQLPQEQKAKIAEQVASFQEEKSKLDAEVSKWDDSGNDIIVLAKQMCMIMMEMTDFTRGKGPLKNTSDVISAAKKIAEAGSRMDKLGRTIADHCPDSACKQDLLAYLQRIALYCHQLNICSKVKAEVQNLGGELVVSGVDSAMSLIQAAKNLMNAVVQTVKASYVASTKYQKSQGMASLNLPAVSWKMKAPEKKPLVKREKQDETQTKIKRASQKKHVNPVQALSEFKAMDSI

[2] = molecular target: actin filaments (actin purified from rabbit skeletal muscle, polymerized) (rabbit, UniProt P68135 1-377); test: co-sedimentation

Kd [1]: ~0.5 nM
B1: recombinant amino-terminal half dlg-like domain of ZO-1 (N-ZO-1; 1–862 aa) produced in Sf9 cells (domain or fragment, mouse, UniProt P39447 1-862, looked up)
chain: MSARAAAAKSTAMEETAIWEQHTVTLHRAPGFGFGIAISGGRDNPHFQSGETSIVISDVLKGGPAEGQLQENDRVAMVNGVSMDNVEHAFAVQQLRKSGKNAKITIRRKKKVQIPVSHPDPEPVSDNEDDSYDEEVHDPRAGRGALANRRSEKSWARDRSASRERSLSPRSDRRSVASSQPAKPTKVTLVKSRKNEEYGLRLASHIFVKEISQDSLAARDGNIQEGDVVLKINGTVTENMSLTDAKTLIERSKGKLKMVVQRDERATLLNVPDLSDSIHSANASERDDISEIQSLASDHSGRSHDRPPRRSQSRSPDQRSEPSDHSTQSPQQPSNGSLRSREEERMSKPGAISTPVKHVDDHPPKAVEEVTVEKNEKQTPTLPEPKPVYAQVGQPDVDLPVSPSDGALPNSAHEDGILRPSMKLVKFRKGDSVGLRLAGGNDVGIFVAGVLEDSPAAKEGLEEGDQILRVNNVDFTNIIREEAVLFLLDLPKGEEVTILAQKKKDVYRRIVESDVGDSFYIRTHFEYEKESPYGLSFNKGEVFRVVDTLYNGKLGSWLAIRIGKNHKEVERGIIPNKNRAEQLASVQYTLPKTAGGDRADFWRFRGLRSSKRNLRKSREDLSAQPVQTKFPAYERVVLREAGFLRPVTIFGPIADVAREKLAREEPDIYQIAKSEPRDAGTDHRSSGIIRLHTIKQIIDQDKHALLDVTPNAVDRLNYAQWYPIVVFLNPDSKQGVKTMRMRLCPESRKSARKLYERSHKLRKNNHHLFTTTINLNSMNDGWYGALKEAIQQQQNQLVWVSEGKADGATSDDLDLHDDRLSYLSAPGSEYSMYSTDSRHTSDYEDTDTEGGAYTDQELDETL

Kd [2]: ~10 nM
B2: recombinant carboxyl-terminal half of ZO-1 (C-ZO-1; 863–1745 aa) produced in Sf9 cells (domain or fragment)
chain: NDEVGTPPESAITRSSEPVREDSSGMHHENQTYPPYSPQAQPQAIHRIDSPGLKPASQQKAEASSPVPYLSPETTPASSASAVNHNVSVTNVSLEEPAPAPPTSHASQPGCLGAPSAEAAHVVLRGEGPPLPPHADPAKVYRKEPYSEEMMRQNHILKQPALGHPGQRPDKEPNLAYEPQLPYIEKQASRDLEQPSYRYEVSSYTDQFSRNYDHRLRFEDRIPTYEDQWSYYDDKQPYQPRPFENQHPRDLDSRQHPEEASERGYFQRFEEPAPLSYDSRTRYEQLPRTSTLRHEEQPAPAYEVHNRYRPEAQPYSSTGPKSSEPKQYFDQYPRSYEQVPPPGFTSKTGHYEPLHGAAVVPPLIPSSQQKPEVLPSATKPQPPPPTLTEEEEDPAMKPQSVLTRVKMFENKRSASLENKKDVNDTASFKPPEVASKPPGASLAGPKPVPQSQFSEHDKTLYRLPEPQKPQVKPPEDIVRSNHYDPEEDEEYYRKQLSYFDRRSFESKPSAHLPAGHHSEPAKPVHSQSQPNFSSYSSKGKPETDAVDRSFSEKRYDPAQATPPPPPLPSQYSQPAPPLSSSSLHIHSKGAQGEGNSVSLDFQNSYMSKPDPPPSQSKPATFRPPTREDPPQTFYPQKSFPDKAPVNGAEQTQKTITPVYNRFTPKPYTSSARPFERKFESPKFNHNLLPSETVHKPELSSKTPTSPKTLMKAHSSTQPPEFDSGVETFSVHTDKPKYQMNNISTMPKAVPVSPSAVEEDEDEDGHTVVATARGIFNSNGGVLSSIETGVSIIIPQGAIPEGIEQEIYFKVCRDNSILPPLDKEKGETLLSPLVMCGPHGLKFLKPVELRLPHCDPKTWQNKCLPGDPNYLVGANCVSVLIDHF
